# Experimental data as given in the DeepSol protein solubility set.
# Assay: soluble on expression in E. coli; label from the status in PepcDB or PDB records
row,Sequence,soluble on expression in E. coli
1,MHSLTSRAPAEPDERLQALKRLIGKVTPQIGLNDVCKTSIPDLTFYRMDKLATPTYCIYEPCVAIILQGAKEITFGEQACEFAQGSFFVTSVDIPTLARVTAASEQTPYLSIVLKLDLSMLNDVIQTQAPLKQEATPEARGFASGMASSEMLDAFARLSALTGQPLEAGLMSDLIKREICVRLLLSCAGQWLRSVTRDGYRDKGIVRAIEWLKLHYDEPLHVAQLAQLSGMASSTLHHNFRKLTGTSPVQYQKSLRLQAARSLMLTERVDVNTAALRVGYESVAQFSREYARRFGAPPSRDIKYAREAGGRRD,not soluble
2,MHSQFGKHKSDISLLTPAPPSPKAFGLLYAAHWLGSTDPEIWERLETLANENQCLIDLRDEKVPGTYETQLFVIGYAGNIVTVLKQLQDYIDEPNNFDRFDIDRRPRKETLKMCVPTDMFLSKFGVGLVAEGRITHYEQNRGVTIKTYAISQSQHVISVYSNENNHQLPLHDLVEYFAYPSQCYEKSFAQKIPYLVDNKSGLLNRFKDISKLDVIKTPRDQLWLMALDGMKTVDARESILQALRENPDSASLYVRACKLEHLPSCKMEWLLHALQRDTLDDKMKIIKHAETYFRGPAILQILESAVLSLSNDIHIVRELAIAHEKSGNFEKSMQFLKDCIDNNSWNSTELTASMIHCEHAGANRTSKVYLEAMYSIFNFTTSEEAALIEIVKVLVETDSPLSAKSLSLELMTRYAGTPTFEKTRQLFHSLFYTTCSKSDSERYDDTFIKHMAKWNKKQQEQQK,not soluble
3,MHSRSVKFPSSKGHQIAGTIDFPDGTPRAFAMFAHCFTGSRFTPGAARVSKELAERGIACLRFDFPGLGQSEGIFSETSFSENVADIKAAADWLGQHYSAPQLLIGHSLGGAASLKAATTLKCLRGVATIGAPFDPAHAVLHFADRIGEVDENGAVTLTLGGRDITISREFLEDLADTNPEAYLPRLRKPLLILHSPIDQTVGVDNAQLIFRTTRYPKSLVALDKVDHLLTKQGSAQQAARIINTWFEQHIVAENEDPNADTLPEGVAVAQSIPAGKFADIVHTGTHSFTTDREKALGGKNLGVSPTSLLISALAAATSQEIRLAAKESRIHSLEDVNVTISKTVGDGERVHLRRNISLVGDLTDDERHELLLAARNSDIEKMLQGNVTINDQDV,not soluble
4,MHTILILGAGPAGAAVALGLRRLGYPVTLVSDWRRFPALEGVSLRVLEALRGAGLEQALAQALQPSQRRVAWNGAEHAQNIEYLLDRPAFDRGLREALREAQVKLIEGRVLGVQSSEAGHRVQVQGQGEVRGEFLVEARGRQAPVLDKALRQGGGKGLRGPETVSLLNRWQGPGGSATSAVHSLEDGWAWMARREDGQCYWQLTLDVESAGLPGKAQLLEYCRQRRLGSAMAREFFAGGQEQQLHLHARSSTAILNPQACGANWLRVGDAAMAVDPLSGNGIFQSLSSALQAPAVINTLLQQPQRAALAQRFHGQRVEQLFLRFARIGRDFYADEQRWPEQPFWQARRQWPDCQPAHIAVDFSALRIERAPVLRDGLVDEAEVVITPDQPLGIWHVQGVELAPLLRRLRSQGAAQALAQLSPDQNRLIRSWLLAQGYRPLEHHHHHH,not soluble
5,MHTKGPTPQQHDGSALRIGIVHARWNETIIEPLLAGTKAKLLACGVKESNIVVQSVPGSWELPIAVQRLYSASQLQTPSSGPSLSAGDLLGSSTTDLTALPTTTASSTGPFDALIAIGVLIKGETMHFEYIADSVSHGLMRVQLDTGVPVIFGVLTVLTDDQAKARAGVIEGSHNHGEDWGLAAVEMGVRRRDWAAGKTE,soluble
6,MHTNERKTVVYEYQNEQEVVMKVKELELQGVRHDDIYVLAHEKHITKRIADDTNTNTIGVKEQGLGTSIINFFSKKGDELRNQMEEMGLSKEEANLYEEKLDQGKILLLVTAEVPMANDRQPQNYHSL,not soluble
7,MHVAIIGGGISGIAAAFYLAQQKVSIDIFESENQIGGRAGSDFLQERRVDFGGKNIGRNYLLFREFARAYGDPAFEYFGINTSQLINGRIVSISREGSAWLNLLKIIRLCGLRKGITRLYPHIQAILNDRSQGVLCSDYFRALSENFDHLTLDRYLNQRCIDRVIRPITIRMNGAEPEECYPGNFGSNLALALDSFEQLTLGMYNLLDTFIASHRQESSFRILTGHRVTSIAKDQDKFRINYLNGAVSGTGSYDRIISALPAYSLAELLQDELPEASRLLNKISYFPVSIAIVKYRDEVFPQNRRAMVFDRNSPLSNAGAYGLNDLDIVRYTFSGKASRAAISEHSTPEEVISLGEKTASPYFSIKDNPKEAFVFRYFPKGLCAYSPKHHLLLEEIDRLVNRLSGFGTTGDYRRGASIEACFRAAKECIEKVVGDGSLEHHHHHH,soluble
8,MHVFDNNGIELKAECSIGEEDGVYGLILESWGPGDRNKDYNIALDYIIERLVDSGVSQVVVYLASSSVRKHMHSLDERKIHPGEYFTLIGNSPRDIRLKMCGYQAYFSRTGRKEIPSGNRTKRILINVPGIYSDSFWASIIRGELSELSQPTDDESLLNMRVSKLIKKTLSQPEGSRKPVEVERLQKVYVRDPMVKAWILQQSKGICENCGKNAPFYLNDGNPYLEVHHVIPLSSGGADTTDNCVALCPNCHRELHYSKNAKELIEMLYVNINRLQKLEHHHHHH,soluble
9,MHVMIFGAGYSGKAIANALKTKAASVCGTTRSADKFANLAAAGMTPLLFDGVHLDDDLIAAMRNVTHLVQSIAPGKDGDPLFALLGGDLKKLLPNLKWLAYLSTVGVYGDHHGAWVNETTPCRPVSARSVERVAAEAAWTEAAQSADVPLSILRLSGIYGPGRNTFMNFEKGTARRLVKKDQVFNRIRVEDIGAAIAFLALKNERGIFNVTDDEPCPPQDVVSFAADLMGVVPPAEQDFGTADLTPMARSFYGENKRVSNAKIRELGFDFRFPEYRQSLKQLWESSLWRG,not soluble
10,MHYHGSCHCGTIRFDVEGELTGAMSCNCSICRRKGALLWFVPRDHLRLATPDEQIATYTFNRHLIKHRFCPTCGIHTHGEGVDQQGRAMAAINIRCLDDVDLDAVAVHQYDGRAALEHHHHHH,soluble
11,MIATKDIRIEKDFLGEKEVPSIAYYGVQTLRAVENFPITGYRIHPSLITAMAIVKKAAALANMDTGYLAKDIGHEIAEAAQEIVDGKFHDQFIVDPIQGGAGTSINMNTNEVIANRALERMGYEKGEYAKISPNTHVNMAQSTNDAFPTGIHIATLMRLEELLITMEELHAAFRAKAKEFDHVIKMGRTHLQDAVPIRLGQEFEAYSRVLARDIKRIKQSRQHLYEVNMGATAVGTGLNANPTYIEQVVKHLRTFSGFPLVGAEHLVDATQNTDAYTEVSAALKVCMMNMSKIANDLRIMASGPRVGLAEIQLPARQPGSSIMPGKVNPVMAEVINQVAFQVIGNDHTICLASEAGQLELNVMEPVLVFNLIQSISIMNNGFRVFREYCIKGITANEELLKQYVEKSVGIITAVNPHIGYEAASRIAREAIETGKSVRELCLEHGVLTEEELDIILDPFEMTHPEIAGASLLKDKKM,not soluble
12,MIDALLQEKITTRLIDTAPTIPVGVSNRHVHLSQQDVEALFGVGYQLTPFKPLRQPGQFAAEECVTVVGPKGSLTHVRVLGPVRPTSQLEISRADCFTLGIKAPVRESGQLENAGDALLVGPKGHVELHSQVICAWRHIHMSPQDARLLNVSNGQKVSVRSHGERQLTFDEVVVRVRNDFALELHIDTEEANAAGLKNGAQVTLIR,not soluble
13,MIDDLLNFFNSFNVVKNYKLINQLKNEVDTLKSRLDIPRELLDGFYADRNSREYREVYEKDAPLVTVCIGTYNRGKLLVERSVRSVLEQSYGNIELIVVGDCCTDDTPRLVQGITDPRFRFINLPERGNYPENPLHRWCVAGTVPFNYALSQARGDFITHLDDDDEFVPDRIEKLVKFIQREKADLVWHPFWYERSNGRWAMRKAQEFSGGKVTTSSIFYHRWFTAVPWDIEAYRYQEPGDWNRLRKIKYLGARVARYPEPLLRHYCERNQESLSSRTIQTRNTKLEHHHHHH,not soluble
14,MIDKSAFIHPTAIVEDGAVIGANAHIGPFCIVGPQVEIGEGTVLKSHVVVNGQTKIGRDNEIYQFASIGEVNQDLKYAGEPTRVEIGDRNRIRESVTIHRGTVQGGGLTKVGSDNLLMINAHVAHDCTVGNRCILANNATLAGHVSVDDFAIIGGMTAVHQFCIIGAHVMVGGCSGVAQDVPPYVIAQGNHATPFGVNIEGLKRRGFSREGLVAIRNAYKLLYRSGKTLDEAKLEIAELAEKHPEVKAFTEFFERSTRGPIR,not soluble
15,MIDLHCHSTVSDGMLSPAEVVRLAHQNGCTLLALTDHDHTGGIAEARAEADKLGLRLINGVEISVTWRGRTIHVVGLDFDEQDENLQNLLAQVRKGRLKRLEAIAAKLEKKGIGGAYDGALALAANKEMVSRTHVAEFLIQAGHVKNKQQAFTKYLGDGKSCAVRHEWATLEDCVSAVNGAGGMAVIAHPMRYDLSATAKRNLFEEFKNLGGAGIEVHSGNCCKNDRLNYALLAERFGMLASAGSDFHRLNDFSGGILGACPELPENCKPVWEHFSRY,not soluble
16,MIDLYYAPTPNGHKITLFLEEAELAYRLLKVDISKGNQFRPDFLAISPNNKIPAIVDHAPADGGQPLSLFESGEILLYLAEKSGKLLSGELRERHTTLQWLFWQVGGLGPMLGQNHHFNHFAPQAIPYAIERYQVETQRLYNVLNKRLETSPWLGGDHYSIADIASWPWVNAHQRQRIDLDTYPAVYNWFERIRTRPATARALLQAQLHCNSTKA,not soluble
17,MIDRLAMIGVNVKTASREHVARLEKEWEKHLDTIGYASRGTVIIATCNRFEVYLDSPSRLVEDLASSIASPGGEGLVRLQGIDAARHLFRVASGLESQIIGDHEVLGQVRRAWLKSREKGFTTPLLDEVFHRALKTGARVRSESAISSGGVGYSSAAVSLAASLLGGGLDGARVGIVGAGMAAVGIARALCTRWRPRVVAVFNRTPERGWEVAGKCRGVESLVLPLDELAKLINELDALFVAIAGSTNILERGRVERGVSPRVIVDISNPPVTPKVAGRVFHMPEVEEEAKRMMEERLRWIPAAEAIIEEELEALLDALSRRRARESSRSVMRALSILAEREYERTLAGLRNGVDPREAVELALNSYTKKVGGALRRLLEEASDRGQLSLEDIEAILVSEFARIAENSGFKNGSTG,soluble
18,MIDSQGWYRLARKVPSPHCDVRHDSEDISLLVVHNISLPPGQFGGPYIEQFFLGELDANQHSFFKVIAKMRVSAHCVIRRDGEVVQFVPFHLRAWHAGVSSFAGRAKCNDYSIGIELEGSDFVPYTDAQYQALTELTQALMVRYPHITLPRITGHQYIAPLRKTDPGLVFDWRRFRAGLKS,not soluble
19,MIDYTAAGFTLLQGAHLYAPEDRGICDVLVANGKIIAVASNIPSDIVPNCTVVDLSGQILCPGFIDQHVHLIGGGGEAGPTTRTPEVALSRLTEAGVTSVVGLLGTDSISRHPESLLAKTRALNEEGISAWMLTGAYHVPSRTITGSVEKDVAIIDRVIGVKCAISDHRSAAPDVYHLANMAAESRVGGLLGGKPGVTVFHMGDSKKALQPIYDLLENCDVPISKLLPTHVNRNVPLFEQALEFARKGGTIDITSSIDEPVAPAEGIARAVQAGIPLARVTLSSDGNGSQPFFDDEGNLTHIGVAGFETLLETVQVLVKDYDFSISDALRPLTSSVAGFLNLTGKGEILPGNDADLLVMTPELRIEQVYARGKLMVKDGKACVKGTFETA,soluble
20,MIEIPSDLHKDLVPLVFLLGDWAGAGVHDFPGAEKCNFGQEVSFTHDGRDFLEYQSHTWVLDNDGNKVRPLESEHGFWRIDANRKVEVTMTRDDGVIEIWYGELADQKPQIDLVTDAVARTAASQPYTGGKRLYGYVKSDLMWVGEKQTPEVELRPYMSAHLKKVVTPEDVERWAKALPDDMPDDGIAFFKLEHHHHHH,not soluble
21,MIELYSNAKLPTEFGLFRIYTFVNDENKDHAVIVRGDPRGKENVPLRIHSECLTGDVLGSLRCDCRDQLIQSLRYLGRQEYGMLIYLRQEGRGIGLLNKIKAYSLQDMGADTVEANLKLGLPVDSRNYSFAAEVLRYFEIKSIYIMTNNPEKIKSLIESGINVKGRIPIFSDPTPYDKFYLETKKTKLGHEIENILEHHHHHH,soluble
